First the molecules themselves.
T1: P. vivax Reticulocyte Binding Protein 2b, residues 161–1454 (P. vivax strain Salvador I, UniProt A5K736 161-1454, DyLight 488 (NHS ester) in the FRET assay; biotin (BirA site) in the competition ELISA between human mAbs)
T1 chain: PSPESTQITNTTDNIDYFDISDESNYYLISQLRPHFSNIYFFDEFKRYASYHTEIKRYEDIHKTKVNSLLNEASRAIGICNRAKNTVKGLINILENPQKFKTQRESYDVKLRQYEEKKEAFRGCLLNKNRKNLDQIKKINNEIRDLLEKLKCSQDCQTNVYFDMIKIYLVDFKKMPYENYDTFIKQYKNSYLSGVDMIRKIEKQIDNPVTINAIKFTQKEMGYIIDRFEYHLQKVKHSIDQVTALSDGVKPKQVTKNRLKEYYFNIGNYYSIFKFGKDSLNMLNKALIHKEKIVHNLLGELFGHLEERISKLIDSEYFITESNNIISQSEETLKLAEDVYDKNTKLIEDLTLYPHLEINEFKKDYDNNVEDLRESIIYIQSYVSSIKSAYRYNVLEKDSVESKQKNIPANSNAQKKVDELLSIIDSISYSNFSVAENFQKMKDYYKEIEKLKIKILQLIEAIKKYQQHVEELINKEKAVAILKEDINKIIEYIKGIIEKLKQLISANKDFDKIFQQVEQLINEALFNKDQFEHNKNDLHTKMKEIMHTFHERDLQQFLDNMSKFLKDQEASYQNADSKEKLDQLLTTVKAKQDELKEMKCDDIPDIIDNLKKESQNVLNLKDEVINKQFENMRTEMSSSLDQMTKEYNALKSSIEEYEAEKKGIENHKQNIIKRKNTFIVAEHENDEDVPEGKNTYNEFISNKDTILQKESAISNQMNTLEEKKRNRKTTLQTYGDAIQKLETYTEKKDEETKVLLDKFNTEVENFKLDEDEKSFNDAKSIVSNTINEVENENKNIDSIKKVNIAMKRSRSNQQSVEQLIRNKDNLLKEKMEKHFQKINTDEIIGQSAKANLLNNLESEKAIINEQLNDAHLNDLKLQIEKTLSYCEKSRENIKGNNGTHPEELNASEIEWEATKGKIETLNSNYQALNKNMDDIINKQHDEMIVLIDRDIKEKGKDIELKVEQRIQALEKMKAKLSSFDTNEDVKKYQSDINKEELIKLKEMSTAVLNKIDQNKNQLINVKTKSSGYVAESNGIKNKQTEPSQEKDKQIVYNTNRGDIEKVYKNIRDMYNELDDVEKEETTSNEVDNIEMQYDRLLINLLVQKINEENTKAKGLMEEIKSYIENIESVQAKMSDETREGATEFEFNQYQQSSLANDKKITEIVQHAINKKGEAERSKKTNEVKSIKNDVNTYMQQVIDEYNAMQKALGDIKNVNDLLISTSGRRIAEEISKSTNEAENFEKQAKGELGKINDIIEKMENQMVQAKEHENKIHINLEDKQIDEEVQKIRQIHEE

B1: PvRBP2b human mAb 251249 (antibody, V domains shown)
VH: EVQLVESGGGLVKPGGSLRLSCEASGFLFSSYSMNWVRQAPGKGLEWVSSITGYSSEVFYTDSVKGRFTVSRDNSKNSLYLQMDSLRAEDTAVYYCARALTIFGVVITDYWFFDLWGRGTLVTVSS
VL: EIVLTQSPATLSLSPGDRATLSCRASQSVTTFLAWYQQKPGQAPRLLIYDVSNRATGIPARFSGSGSGTDFTLTISSLEPEDFAVYYCQQRSNWGLTFGGGTKVEIK
B2: PvRBP2b human mAb 241242 (antibody, V domains shown)
VH: EVQLLESGGGLVQPGGSLRLSCAVSGFTFRNYALSWVRQAPGKGLDWVSTISASGGATYYADSVKGHFTISRDNSKNILYLDMKSLRAEDTAIYYCARDGGSYTPYFFLDSWGQGALVTVSS
VL: SYELTQPASVSVAPGQTAQITCGGNSIGRKSIHWYQHKPGQAPVLVISYDSDRPSGIPERFSGSNSGNTATLTISKVEAGDEADFYCQVRDSDNDHVVFGGGTKLTVL
B3: PvRBP2b human mAb 283284 (antibody, V domains shown)
VH: QVQLQQWGAGLLKPSETLALTCTVYGGSSSGYYWNWIRQSPGKGLEWIGEISDSGSTIYNPSLESRVTMSVDTSKNQFSLKLTSVTAADTAVYYCAKAILTRYNWLDPWSQGTLVTVSS
VL: DIVMTQSPSSLSASVGDRISISCRASQGVNSALAWYQQKPGKAPKLLIYDASTLESGVPSRFSGSGSGTDFALTINSLQPEDFATYYCQQFNSYPLTFGGGTKVEIK
B4: PvRBP2b human mAb 253245 (antibody, V domains shown)
VH: EVQLVQSGAEVKKPGSSMKVSCKASGGTFNRYVFSWVRQAPGQGLEWMGGILPILETTYYAKNFKGRVTITADESTSTVYMELSSLTSEDTAVYFCARDEHDYVWGSYRPSLTGPWGQGTLVTVSS
VL: QSALTQPPSTSGSPGQSVTISCTGTGIDVGGFSYVSWFQYHPGKAPKLIIFEVTKRPSGVPDRFSGSKSGNTASLTISGLQADDEAEYYCSSYAVNNNFVFGTGTKVTVL
B5: PvRBP2b human mAb 243244 (antibody, V domains shown)
VH: QVQLVESGGGVVQSGKSLRVSCAASGFTFSSYGMHWVRQAPGKGLEWVAFISYDGDNKYSADSVKGRLTISRDNSKNTLYLQMNSLRPEDTAVYYCAKESNYGENAFDIWGQGTMVTVSS
VL: QSALTQPRSVSGSPGQSVTISCTGTSSDVGFYNFVSWYQHHPGKAPKLIIYDVSERPSGVPDRFSGSKSGNTASLSISGLQPEDEADYYCCSYAGTYTFVFGSGTKVTVL
B6: PvRBP2b human mAb 237235 (antibody, V domains shown)
VH: QVQLVESGGGVVQPGRSLRLSCAASGFMFNSYGMHWVRQAPGKGLEWMAFISYDGSDDYYGDSVKGRITISRDNSKNTLFLHINSLRTEDTAVYYCAKESNYGENAFDVWGHGTMVTVSS
VL: B5 VL with S27N, I49M, S54T, S76T, P82A, D87E, S103H
B7: PvRBP2b human mAb 273264 (antibody, V domains shown)
VH: EVQLLESGGGLVRPGGSQRLSCAASGFTFTPYAMTWVRQAPGKGLEWLSTISGSGGSTSYADSVKGRFTISRDNSKNILYLQMDSLRAEDTALYYCTKDKDEYTFGHNAFDVWGRGTMVTVSS
VL: SYELTQAPSVSVAPGQTARITCGGDNIGRTSVHWYQQKPGQAPVLVIFYDNDRPSGIPERFSGSNSGNMATLSISRVEVGDEADYYCQVWDSNNDHPVFGGGTKLTVV
B8: PvRBP2b human mAb 258259 (antibody, V domains shown)
VH: B7 VH with S59Y, I78M, D84N, R87T, R115Q
VL: B7 VL with T30K, S31T, H33N, F48Y

The term Kd denotes the constant that tells how readily two partners part at equilibrium. A low value points to a tighter complex. As a reminder, the koff is the rate constant with which the complex falls apart. High values mean a short-lived complex, low ones a long-lived complex.

Positions count from the first letter of the chain named.

The first experiment has as its target T1, P. vivax Reticulocyte Binding Protein …. Nature of the experiment: BLI. (Biolayer interferometry detects binding as a change in optical thickness at a sensor tip.)
B1 showed a Kd of less than 0.01 nM.
Regarding B2, the Kd is 0.061 nM.
Same read-out and setting: for B3 the value was 0.246 nM; for B4, 0.0307 nM; for B5, 0.0366 nM.
In turn, B6 showed a Kd of 0.0883 nM.
In turn, B7 showed a Kd of 0.083 nM.
Still for that read-out and setting: for B8 the value was 0.0269 nM.

The target is the same in the next experiment. Briefly: BLI; representative sensorgram.
Regarding B1, the Kd was less than 0.01 nM.
On the same count and under the same terms, for B2 the value was less than 0.01 nM; for B3, 0.1 nM.
On the same count and under the same terms, for B4 the value was less than 0.01 nM; for B5, less than 0.01 nM.
Same read-out and setting: with B6 the figure was 0.1 nM; with B7, less than 0.01 nM.
Molecule B8 gave a Kd of less than 0.01 nM.

For another experiment the target is unchanged. Nature of the experiment: BLI. This is another data set of the same source.
The molecule B1 displayed a koff of less than 1e-06 s⁻¹.
B2 returned a koff of 2.13e-05 s⁻¹.
The same measure, in the same setting: with B3 the figure was 6e-05 s⁻¹; with B4, 8.17e-06 s⁻¹.
B5 registered a koff of 1.15e-05 s⁻¹.
Still for that read-out and setting: for B6 the value was 3.45e-05 s⁻¹; for B7, 3.02e-05 s⁻¹; for B8, 7.57e-06 s⁻¹.

The values are drawn from article PMC7943553 (2021).
